Where a chain is given by its changes, count along the chain named. Each block holds one binder with its values, some of them ahead of it.
How the values were obtained:
HA-tagged LEF-1 = assay: cell-based or functional assay
[1] = molecular target: T1, Endogenous β-catenin of SW480 human colon carcinoma cells (human, UniProt P35222 2-781); assay: double immunofluorescence, transfected SW480 cells
T1 construct: whole, on cells
T1 sequence (looked up): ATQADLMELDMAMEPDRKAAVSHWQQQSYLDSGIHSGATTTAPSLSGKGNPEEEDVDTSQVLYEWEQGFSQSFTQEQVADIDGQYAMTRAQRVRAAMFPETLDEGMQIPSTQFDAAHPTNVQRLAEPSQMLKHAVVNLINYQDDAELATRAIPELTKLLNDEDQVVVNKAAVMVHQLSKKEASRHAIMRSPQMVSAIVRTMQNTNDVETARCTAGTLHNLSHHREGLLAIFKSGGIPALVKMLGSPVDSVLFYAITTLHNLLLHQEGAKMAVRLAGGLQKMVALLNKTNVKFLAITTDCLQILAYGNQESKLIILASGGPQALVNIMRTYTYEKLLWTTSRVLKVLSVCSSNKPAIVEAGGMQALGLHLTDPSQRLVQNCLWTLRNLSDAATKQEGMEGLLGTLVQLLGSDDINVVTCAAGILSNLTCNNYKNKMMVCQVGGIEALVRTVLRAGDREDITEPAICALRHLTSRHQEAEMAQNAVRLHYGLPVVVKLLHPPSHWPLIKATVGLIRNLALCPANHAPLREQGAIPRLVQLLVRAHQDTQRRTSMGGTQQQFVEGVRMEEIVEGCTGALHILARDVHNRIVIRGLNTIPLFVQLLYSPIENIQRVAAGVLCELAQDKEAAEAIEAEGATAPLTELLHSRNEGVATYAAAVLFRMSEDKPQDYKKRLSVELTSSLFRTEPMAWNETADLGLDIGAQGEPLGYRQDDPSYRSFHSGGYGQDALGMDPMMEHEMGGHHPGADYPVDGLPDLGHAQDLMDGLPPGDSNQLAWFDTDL

HA-tagged LEF-1, sequence (P27782 whole entry): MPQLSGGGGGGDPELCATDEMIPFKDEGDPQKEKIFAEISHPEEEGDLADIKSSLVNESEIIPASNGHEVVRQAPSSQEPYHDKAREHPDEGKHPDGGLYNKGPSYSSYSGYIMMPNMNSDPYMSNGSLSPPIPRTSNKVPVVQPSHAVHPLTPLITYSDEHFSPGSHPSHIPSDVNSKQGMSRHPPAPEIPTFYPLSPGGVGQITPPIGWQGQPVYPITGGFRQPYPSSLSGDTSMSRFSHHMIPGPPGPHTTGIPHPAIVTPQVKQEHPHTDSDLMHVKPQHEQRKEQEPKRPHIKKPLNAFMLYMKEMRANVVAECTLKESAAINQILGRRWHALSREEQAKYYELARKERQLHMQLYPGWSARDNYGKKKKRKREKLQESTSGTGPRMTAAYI

- luciferase activity (TOPFLASH reporter) in CHO cells (HA-tagged LEF-1): ~5 fold
B1: Mouse β-catenin (transfected cDNA) (other, UniProt Q02248 2-781, looked up)
chain: T1 sequence (looked up) with P705A

- binding result [1]: binds
B2: HA-tagged chicken α-catenin (other)
chain: TAVTAGNVNFRWDPKSLEIRTLAVERLLEPLVTQVTTLVNTSNKGPSNKKRGRSKKAHVLAASVEQATENFLDKGDKIAKESQFLKEELVAAVEDVRKQGDLMKSASGEFADDPCSSVKRGNMVRAARALLSAVTRLLILADMADVYKLLVQLKVVEEGILKLRNAGTEQDLGIQYKALKPEVDKLNIMAAKRQQELKDVGHRDQMAAARGILQKNVPILYTASQACLQHFDVAAYKANRDLIYKQLQQAVTGISNAAQATASDDAAQQQGGGGELAYALNNFDKQIIVDPSTFSEQRFRPSLEERLESIISGAALMADSSCTRDDRRERIVAECNAVRQALQDLLSEYMGNAGRKERSDALNSAIDKMTKKTRDLRRQLRKAVMDHVSDSFLETNVPLLVLIEAARNGNEKEVKEYTQVFREHANKLIEVANLACSISNNEEGVKLVRMSASQLEALCPQVINAALALAAKPQSKLAQENMELFKEQWEKQVRVLTDAVDDITSIDDFLAVSENHILEDVNKCVIALQEKDVDGLDRTAGAIRGRAARVIHVVTSEMDNYEPGVYTEKVLEATKLLSNTVMPRFTEQVEAAVEALSSDPAQPMDENEFIDRSRLVYDGIRDIRKAVLMIRTPEELDDSDFETEDFDVRSKTSIQTEDDQLIAGQSARAIMAQLPQEQKAKIAEAVASFQEEKSKLDAEVSKWDDSGNDIIVLAKQMCMIMMEMTDFTRGKGPLKNTSDVISAAKKIAEAGSRMDKLGRTIADHCPDSASKQDLLAYLQRIALYCHQLNICSKVKAEVQNLGGELVVSGVDSAMSLIQAAKNLMNAVVQTVKASYVASTKYQKSQGMASLNLPAVSWKMKAPEKKPLVKREKQDETQTKIKRASQKKHVNPVQALSEFKAMESI
notes: also called HA α-catenin; not shown: 16-amino acids hemaglutinin (HA)-tag of the pCGN vector at the NH2-terminus
